T1: human TGFβ2 (transforming growth factor beta 2) (human, UniProt P61812 303-414)
T1 sequence (looked up): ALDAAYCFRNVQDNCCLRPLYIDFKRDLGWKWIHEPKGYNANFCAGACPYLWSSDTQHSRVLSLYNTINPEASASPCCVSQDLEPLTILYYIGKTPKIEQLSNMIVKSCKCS

T2: TGFβ3 (transforming growth factor beta 3) (UniProt P10600 301-412)
T2 construct: mature; also called TGFbeta3
T2 sequence (looked up): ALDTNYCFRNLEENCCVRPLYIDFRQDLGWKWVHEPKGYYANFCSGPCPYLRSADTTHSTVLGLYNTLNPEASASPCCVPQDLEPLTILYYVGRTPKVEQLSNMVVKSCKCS


Columns and labels:
[1] = molecular target: T1, human TGFβ2 (transforming growth factor …); test: cell-based or functional assay
[2] = molecular target: T3, human TGFβ1 (transforming growth factor beta 1) (human, UniProt P01137 279-390); test: BIACore, scFv (35µl) injected over amine-coupled antigen on CM5 chip; chip as printed
T3 construct: mature; Active dimer; also called TGFbeta1

[3] = molecular target: T1, human TGFβ2 (transforming growth factor …); test: as above
[4] = molecular target: T3, human TGFβ1 (transforming growth factor …); test: specificity ELISA, TGFβ isoforms coated at 0.2µg/ml
[5] = molecular target: T1, human TGFβ2 (transforming growth factor …); test: cell-based or functional assay; remark: listed apart in the source
[6] = molecular target: T2, TGFβ3 (transforming growth factor beta …); test: A549 cell radioreceptor assay, inhibition of 125I-TGFβ3 binding to receptors
[7] = molecular target: T2, TGFβ3 (transforming growth factor beta …); test: BIAcore 2000, antigen immobilised, antibody as analyte; koff divided by kon
[8] = molecular target: T2, TGFβ3 (transforming growth factor beta …); test: A549 cell radioreceptor assay
[9] = molecular target: T2, TGFβ3 (transforming growth factor beta …); test: cell-based or functional assay
[10] = molecular target: T2, TGFβ3 (transforming growth factor beta …); test: BIAcore 2000, ratio of dissociation constants
[11] = molecular target: T2, TGFβ3 (transforming growth factor beta …); test: BIAcore 2000, antigen immobilised, antibody as analyte
[12] = molecular target: T2, TGFβ3 (transforming growth factor beta …); test: cell-based or functional assay; remark: listed apart in the source
[13] = molecular target: T1, human TGFβ2 (transforming growth factor …); test: BIACore, IgG4 over TGFβ2-coated chip

T3 sequence (P01137 279-390 limits assumed): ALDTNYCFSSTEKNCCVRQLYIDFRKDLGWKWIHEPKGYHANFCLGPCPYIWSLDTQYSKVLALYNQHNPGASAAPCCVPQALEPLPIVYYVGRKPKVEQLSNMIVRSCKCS

Row | Binder | I.C.50 in TF1 assay (neutralisation of the TGFβ2 inhibition of IL-5 induced TF1 cell proliferation) [1] | total increase in resonance units (RU) [2] | total increase in resonance units (RU) [3] | other results
1 | 6A5 scFv (scFv) EVQLVESGGGVVQPGRSLRLSCAASGFTFSSYGMHWVRQAPGKGLEWVAVIWYDGSNKYYADSVKGRFTISRDNSKNTLYLQMDSLRAEDTAVYYCGRTLESSLWGQGTLVTVSSGGGGSGGGGSGGGGSSSELTQDPAVSVALGQTVRITCQGDSLRSYYASWYQQKPGQAPVLVIYGKNNRPSGIPDRFAGSNSGNTASLTITGAQAEDEADYYCSSRDSSGNHVVFGGGTKLTVLG | 8 nM | 480 RU | 71 RU | –
2 | 6B1 scFv (scFv) EVQLVESGGGVVQPGRSLRLSCAASGFTFSSYGMHWVRQAPGKGLEWVAVIWYDGSNKYYADSVKGRFTISRDNSKNTLYLQMDSLRAEDTAVYYCGRTLESSLWGQGTLVTVSSGGGGSGGGGSGGGGSSSELTQDPAVSVALGQTVRITCQGDSLRSYYASWYQQKPGQAPVLVIYGKNNRPSGIPDRFSGSSSGNTASLTITGAQAEDEADYYCNSRDSSSTHRGVFGGGTKLTVLG | 15 nM | – | – | –
3 | 10A6 scFv (scFv) QVQLVESGGGVVQPGRSLRLSCAASGFTFSSYGMHWVRQAPGKGLEWVAVISYDGSNKYYADSVKGRFTISRDNSKNTLYLQMNSLRAEDTAVYYCAKTGEYSGYDSSGVDVWGKGTTVTVSSGGGGSGGGGSGGGGSHVILTQDPAVSVALGQTVRITCQGDSLKSYYASWYQQKPGQAPVLVIYGENSRPSGIPDRFSGSSSGNTASLTITGAQAEDEADYYCNSRDSSGTHLEVFGGGTKLTVLG | – | – | – | fold ELISA signal on TGFβ1 against the signal on TGFβ2 and TGFβ3 [4]: ≥ 5 fold
4 | 6B1 IgG4 (antibody, V domains shown) VH: EVQLVESGGGVVQPGRSLRLSCAASGFTFSSYGMHWVRQAPGKGLEWVAVIWYDGSNKYYADSVKGRFTISRDNSKNTLYLQMDSLRAEDTAVYYCGRTLESSLWGQGTLVTVSS VL: SSELTQDPAVSVALGQTVRITCQGDSLRSYYASWYQQKPGQAPVLVIYGKNNRPSGIPDRFSGSSSGNTASLTITGAQAEDEADYYCNSRDSSSTHRGVFGGGTKLTVLG | 11 nM | – | – | IC50 in the TF1 neutralisation assay (6B1 IgG4 from cell line 5D8-2A6) [5]: 1.8 nM; IC50 [6]: 4 nM; Kd [7]: 10 nM; cross-reactivity with TGFβ3 relative to TGFβ2 [8]: < 2%; TF1 cell proliferation assay IC50 (nM IgG) [9]: 11 nM; cross-reactivity with TGFβ3 (ratio of dissociation constants for TGFβ3 and TGFβ2) [10]: 9%; koff [11]: 0.00045 s⁻¹; kon [11]: 45000 M⁻¹ s⁻¹
5 | 6H1 IgG4 (antibody, V domains shown) VH: EVQLVESGGGVVQPGRSLRLSCAASGFTFSSYGMHWVRQAPGKGLEWVAVIWYDGSNKYYADSVKGRFTISRDNSKNTLYLQMDSLRAEDTAVYYCGRTLESSLWGQGTLVTVSS VL: DVVMTQSPSSLSASVGDRVTITCRASQGISNYLAWYQQKPGKAPKLLIYKASTLESGVPSRFSGSGSGTEFTLTISSLQPEDFATYYCQQSYSTPRTFGQGTKVDIKR | 100 nM | – | – | IC50 in the TF1 neutralisation assay (6H1 IgG4 from a CHO cell line) [5]: 15 nM; IC50 of neutralisation of TGFβ2 in the TF1 cell proliferation assay [5]: 12 nM; IC50 of neutralisation of TGFβ3 in the TF1 cell proliferation assay [12]: ~20 nM
6 | 6A5 IgG4 (antibody, V domains shown) VH: EVQLVESGGGVVQPGRSLRLSCAASGFTFSSYGMHWVRQAPGKGLEWVAVIWYDGSNKYYADSVKGRFTISRDNSKNTLYLQMDSLRAEDTAVYYCGRTLESSLWGQGTLVTVSS VL: SSELTQDPAVSVALGQTVRITCQGDSLRSYYASWYQQKPGQAPVLVIYGKNNRPSGIPDRFAGSNSGNTASLTITGAQAEDEADYYCSSRDSSGNHVVFGGGTKLTVLG | 150 nM | – | – | –
7 | 27C1/10A6 IgG4 (antibody, V domains shown) VH: QVQLVESGGGVVQPGRSLRLSCAASGLTFSSYDMHWVRQPPAKGLEWVAVISYDGSSKYYADSVKGRFTISRDNSKNTLYLQMNSLRAEDTAVYYCARTGEYSGYDTSGVELWGQGTTVTVSS VL: HVILTQDPAVSVALGQTVRITCQGDSLKSYYASWYQQKPGQAPVLVIYGENSRPSGIPDRFSGSSSGNTASLTITGAQAEDEADYYCNSRDSSGTHLEVFGGGTKLTVLG | – | – | – | fold higher dissociation constant for TGFβ2 compared to TGFβ1 [13]: ≥ 10 fold

Continued, in another order:

Row | I.C.50 in TF1 assay (neutralisation of the TGFβ2 inhibition of IL-5 induced TF1 cell proliferation) [1] | total increase in resonance units (RU) [2] | total increase in resonance units (RU) [3] | Binder | other results
8 | 90 nM | 616 RU | 115 RU | 14F12 scFv (scFv) EIQLVESGGGVVQPGRSLRLSCAASGFTFSSYAMHWVRQAPAKGLEWVAVISYDGSNKYYADSVKGRFTISRDNSKNTLYLQMNSLRAEDTAVYYCARAGLETTWGQGTLVTVSSSGGGGGSGGGGSGGGGSSSELTQDPAVSVALGQTVRITCQGDSLRNYYANWYQQKPGQAPVLVIYGKNNRPSGIPDRFSGSSSGNTASLTITGARAEDEGVYYCNSRDSSGAVFGGGTKLTVLG | –
9 | 1.5 nM | 686 RU | 77 RU | 6H1 scFv (scFv) EVQLVESGGGVVQPGRSLRLSCAASGFTFSSYGMHWVRQAPGKGLEWVAVIWYDGSNKYYADSVKGRFTISRDNSKNTLYLQMDSLRAEDTAVYYCGRTLESSLWGQGTLVTVSSGGGGSGGGGSGGGGSDVVMTQSPSSLSASVGDRVTITCRASQGISNYLAWYQQKPGKAPKLLIYKASTLESGVPSRFSGSGSGTEFTLTISSLQPEDFATYYCQQSYSTPRTFGQGTKVDIKR | –
